In patent US20240392020A1 (JIANGSU HENGRUI PHARMACEUTICALS, published 2024):
Where two headings read alike, the source gives them in different places.

Experiments:
[1] = target: T1, HJ-3-H1 (heavy chain of H0, knob, CH1 replaced with T.10-L1); assay: co-expression of three chains, mass spectrometry
T1 construct: single antibody chain, co-expressed

HJ-3-L1 = target: T2, HJ-3-L1; assay: mass spectrometry of the product of four co-transfected chains of HJ-3; mispairing of heavy chain 2 with light chain 3
T2 construct: also called chain 3 of HJ-3

hBAFF [2] = target: T3, hBAFF (human, UniProt Q9Y275 134-285); assay: SPR Biacore T200, BU5 captured, hBAFF injected after saturation with hP40
T3 construct: bought

hBAFF [3] = target: T3, hBAFF; assay: SPR Biacore T200, antibody captured on Protein A chip
hP40 [4] = target: T4, hP40 (human, UniProt P29460 23-328); assay: as above
T4 construct: bought
T4 sequence (looked up): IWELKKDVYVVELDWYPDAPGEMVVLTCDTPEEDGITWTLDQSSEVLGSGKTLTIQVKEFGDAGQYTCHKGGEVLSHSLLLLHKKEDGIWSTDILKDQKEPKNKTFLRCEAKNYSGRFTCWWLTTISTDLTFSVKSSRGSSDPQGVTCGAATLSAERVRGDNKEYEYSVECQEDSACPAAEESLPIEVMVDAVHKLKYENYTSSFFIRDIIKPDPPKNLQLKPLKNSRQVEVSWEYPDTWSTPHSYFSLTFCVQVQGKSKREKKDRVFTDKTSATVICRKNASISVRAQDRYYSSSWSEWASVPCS

hP40 [5] = target: T4, hP40; assay: SPR Biacore T200, BU5 captured, hP40 injected after saturation with hBAFF
hBAFF [6] = target: T3, hBAFF; assay: ELISA
hBAFF [7] = target: T3, hBAFF; assay: SPR Biacore T200, antibody captured on Protein A chip; remark: listed apart in the source
hBAFF [8] = target: T3, hBAFF; assay: ELISA; remark: listed apart in the source
Heavy chain of D0 = target: T5, Heavy chain of D0 (Homo sapiens (Human), UniProt P0DOX5 1-449 = IgG part); assay: co-expression in HEK293E cells, LC-MS for the mispaired molecule
T5 construct: single antibody chain, co-expressed

[9] = target: T6, Heavy chain of U0 (with a knob modification); assay: co-expression (B/U-2), mass spectrometry
T6 construct: single antibody chain, co-expressed; also called B-H2
T6 sequence (heavy, as listed by the source): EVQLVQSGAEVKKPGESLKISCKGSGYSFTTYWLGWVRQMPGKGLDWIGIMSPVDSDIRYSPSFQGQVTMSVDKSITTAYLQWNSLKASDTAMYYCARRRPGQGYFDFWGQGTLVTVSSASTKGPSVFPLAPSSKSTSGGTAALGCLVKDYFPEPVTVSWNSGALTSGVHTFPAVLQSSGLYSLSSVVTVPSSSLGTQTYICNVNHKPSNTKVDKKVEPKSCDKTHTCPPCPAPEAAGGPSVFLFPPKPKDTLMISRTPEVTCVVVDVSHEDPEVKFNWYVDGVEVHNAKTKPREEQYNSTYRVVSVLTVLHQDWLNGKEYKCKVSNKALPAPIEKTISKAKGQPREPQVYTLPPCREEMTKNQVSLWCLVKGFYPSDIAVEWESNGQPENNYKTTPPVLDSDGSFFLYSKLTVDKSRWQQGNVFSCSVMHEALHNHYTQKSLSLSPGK

[10] = target: T7, Heavy chain of B0 (with a hole modification); assay: co-expression (B/U-2), mass spectrometry
T7 construct: single antibody chain, co-expressed; also called B-H1 of B/U-2
T7 sequence (heavy, as listed by the source): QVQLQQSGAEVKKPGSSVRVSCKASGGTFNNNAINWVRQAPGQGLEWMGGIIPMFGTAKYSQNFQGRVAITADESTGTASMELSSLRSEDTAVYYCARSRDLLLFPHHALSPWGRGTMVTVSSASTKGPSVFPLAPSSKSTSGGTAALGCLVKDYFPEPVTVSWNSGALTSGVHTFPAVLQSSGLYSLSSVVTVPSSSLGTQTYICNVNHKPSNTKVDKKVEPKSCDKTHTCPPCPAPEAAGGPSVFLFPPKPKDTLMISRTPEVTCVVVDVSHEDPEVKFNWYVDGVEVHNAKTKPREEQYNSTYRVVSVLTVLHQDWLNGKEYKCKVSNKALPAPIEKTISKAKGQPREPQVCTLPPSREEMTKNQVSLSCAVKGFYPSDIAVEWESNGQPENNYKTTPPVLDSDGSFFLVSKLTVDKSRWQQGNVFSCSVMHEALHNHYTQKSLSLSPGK

human PDL1-his [11] = target: T8, human PDL1-his (human, UniProt Q9NZQ7 19-239); assay: SPR Biacore T200, antibody captured on Protein A chip
T8 construct: bought; also called hPDL1
T8 sequence (Q9NZQ7 19-239 limits assumed): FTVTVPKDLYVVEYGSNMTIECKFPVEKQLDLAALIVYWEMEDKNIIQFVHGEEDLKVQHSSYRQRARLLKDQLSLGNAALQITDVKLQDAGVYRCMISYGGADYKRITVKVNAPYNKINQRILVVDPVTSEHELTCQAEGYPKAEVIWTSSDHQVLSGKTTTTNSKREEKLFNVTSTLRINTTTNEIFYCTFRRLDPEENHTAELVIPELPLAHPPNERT

human TIGIT-his [12] = target: T9, human TIGIT-his (human, UniProt Q495A1 22-141, limits assumed); assay: as above
T9 construct: bought; also called hTIGIT
T9 sequence (looked up): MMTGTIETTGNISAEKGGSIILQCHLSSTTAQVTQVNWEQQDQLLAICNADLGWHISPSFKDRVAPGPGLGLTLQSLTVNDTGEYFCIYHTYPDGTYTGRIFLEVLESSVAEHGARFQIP

human TIGIT-his [13] = target: T9, human TIGIT-his; assay: SPR Biacore T200, antibody captured, TIGIT injected after saturation with hPDL1
human PDL1-his [14] = target: T8, human PDL1-his; assay: SPR Biacore T200, antibody captured, hPDL1 injected after saturation with TIGIT
HJ-2-L2 = target: T10, HJ-2-L2; assay: mass spectrometry of the product of four co-transfected chains of HJ-2; mispairing of heavy chain 2 with light chain 3
T10 construct: also called chain 3 of HJ-2
T10 sequence (light, as listed by the source limits assumed): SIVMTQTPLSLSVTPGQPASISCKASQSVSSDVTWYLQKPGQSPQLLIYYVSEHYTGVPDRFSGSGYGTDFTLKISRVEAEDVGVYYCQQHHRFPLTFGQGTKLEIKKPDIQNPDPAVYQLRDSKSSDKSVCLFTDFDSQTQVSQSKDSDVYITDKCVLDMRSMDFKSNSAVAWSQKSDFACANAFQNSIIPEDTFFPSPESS

HJ-4-L2 = target: T11, HJ-4-L2; assay: mass spectrometry of the product of four co-transfected chains of HJ-4; mispairing of heavy chain 2 with light chain 3
T11 construct: also called chain 3 of HJ-4

B1: Light chain of J1 (other)
light: SIVMTQTPLSLSVTPGQPASISCKASQSVSSDVTWYLQKPGQSPQLLIYYVSEHYTGVPDRFSGSGYGTDFTLKISRVEAEDVGVYYCQQHHRFPLTFGQGTKLEIKRTVAAPSVFIFPPSDEQLKSGTASVVCLLNNFYPREAKVQWKVDNALQSGNSQESVTEQDSKDSTYSLSSTLTLSKADYEKHKVYACEVTHQGLSSPVTKSFNRGEC
notes: single antibody chain, co-expressed; also called HJ-1-L2; HJ-3-L2
B1: no binding [1].

B2: HJ-3-H2 (other)
heavy: EVQLVQSGAEVKKPGSSVKVSCKASGYTFSNYLIEWVRQAPGQGLEWIGVIDPGVGDTNYNENFKGRATLTADKSTSTAYIELSSLRSEDTAVYYCAREDNTGTAFDYWGQGTTVTVSSASTKGPSVFPLAPSSKSTSGGTAALGCLVKDYFPEPVTVSWNSGALTSGVHTFPAVLQSSGLYSLSSVVTVPSSSLGTQTYICNVNHKPSNTKVDKKVEPKSCDKTHTCPPCPAPEAAGGPSVFLFPPKPKDTLMISRTPEVTCVVVDVSHEDPEVKFNWYVDGVEVHNAKTKPREEQYNSTYRVVSVLTVLHQDWLNGKEYKCKVSNKALPAPIEKTISKAKGQPREPQVCTLPPSREEMTKNQVSLSCAVKGFYPSDIAVEWESNGQPENNYKTTPPVLDSDGSFFLVSKLTVDKSRWQQGNVFSCSVMHEALHNHYTQKSLSLSPGKDYKDDDDK
notes: also called chain 2 of HJ-3
B2: no binding (HJ-3-L1).

B3: BU5 (bispecific antibody, human IgG1, kappa, L234A L235A)
heavy 1: QVQLQQSGAEVKKPGSSVRVSCKASGGTFNNNAINWVRQAPGQGLEWMGGIIPMFGTAKYSQNFQGRVAITADESTGTASMELSSLRSEDTAVYYCARSRDLLLFPHHALSPWGRGTMVTVSSGGGGSGIPPKIECLPIDISIDEGKVLTVASAFTGEPTPEVTWSTGGRKIHSQEQGRFHIENTDDLTTLIIKDVQKQDGGLYTLTLRNEFGSDSATVNIHIRSIDKTHTCPPCPAPEAAGGPSVFLFPPKPKDTLMISRTPEVTCVVVDVSHEDPEVKFNWYVDGVEVHNAKTKPREEQYNSTYRVVSVLTVLHQDWLNGKEYKCKVSNKALPAPIEKTISKAKGQPREPQVCTLPPSREEMTKNQVSLSCAVKGFYPSDIAVEWESNGQPENNYKTTPPVLDSDGSFFLVSKLTVDKSRWQQGNVFSCSVMHEALHNHYTQKSLSLSPGK
light 1: SSELTQDPAVSVALGQTVRVTCQGDSLRSYYASWYQQKPGQAPVLVIYGKNNRPSGIPDRFSGSSSGNTASLTITGAQAEDEADYYCSSRDSSGNHWVFGGGTELTVLGGGGSSGAPRFLTRPLAFVVSVGKDATLSSQIVGNPTPQVSWEKDKQPVTAGARFRLAQDGDLYRLKILDLQLSDSGQYVSRARNAIGEAFACLGLQVDAEA
heavy 2: not shown
light 2: not shown
B3 showed a Kd (hBAFF [2]) of 0.537 nM, a koff (hBAFF [2]) of 8.44e-05 s⁻¹ and a kon (hBAFF [2]) of 157000 M⁻¹ s⁻¹. For the same binder, the Kd (hBAFF [3]) was 0.393 nM, the koff (hBAFF [3]) was 7.62e-05 s⁻¹ and the kon (hBAFF [3]) was 194000 M⁻¹ s⁻¹. For the same binder, the Kd (hP40 [4]) was 0.0664 nM, the koff (hP40 [4]) was 0.000102 s⁻¹ and the kon (hP40 [4]) was 1.54e+06 M⁻¹ s⁻¹. The Kd (hP40 [5]) was 0.0661 nM, the koff (hP40 [5]) was 0.000104 s⁻¹ and the kon (hP40 [5]) was 1.57e+06 M⁻¹ s⁻¹.

B4: Bmab (antibody, human IgG1, lambda)
heavy: not shown
light: SSELTQDPAVSVALGQTVRVTCQGDSLRSYYASWYQQKPGQAPVLVIYGKNNRPSGIPDRFSGSSSGNTASLTITGAQAEDEADYYCSSRDSSGNHWVFGGGTELTVLGQPKAAPSVTLFPPSSEELQANKATLVCLISDFYPGAVTVAWKADSSPVKAGVETTTPSKQSNNKYAASSYLSLTPEQWKSHRSYSCQVTHEGSTVEKTVAPTECS
notes: also called B0
For B4, the Kd (hBAFF [3]) was 0.855 nM, the koff (hBAFF [3]) was 0.000152 s⁻¹ and the kon (hBAFF [3]) was 177000 M⁻¹ s⁻¹. It also gave an EC50 (hBAFF [6]) of 0.2 nM, a Kd (hBAFF [7]) of 0.864 nM and a koff (hBAFF [7]) of 0.000153 s⁻¹. For the same binder, the kon (hBAFF [7]) was 177000 M⁻¹ s⁻¹ and the EC50 (hBAFF [8]) was 0.219 nM.

B5: Light chain of I3 (other)
light: DIQMTQSPSSLSASVGDRVTITCRASQSISNNLNWYQQKPGKAPKLLIYYTSRFHSGVPSRFSGSGSGTDFTFTISSLQPEDIATYYCQQEHTLPYTFGQGTKLEIKSGAPRFLTRPLAFVVSVGKDATLSSQIVGNPTPQVSWEKDKQPVTAGARFRLAQDGDLYRLKILDLQLSDSGQYVSRARNAIGEAFACLGLQVDAEA
notes: single antibody chain, co-expressed
B5: no binding (Heavy chain of D0).

B6: Chain formed by replacement of CL of light chain of B0 with O.20 (other)
light: SSELTQDPAVSVALGQTVRVTCQGDSLRSYYASWYQQKPGQAPVLVIYGKNNRPSGIPDRFSGSSSGNTASLTITGAQAEDEADYYCSSRDSSGNHWVFGGGTELTVLSGAPRFLTRPLAFVVSVGKDATLSSQIVGNPTPQVSWEKDKQPVTAGARFRLAQDGDLYRLKILDLQLSDSGQYVSRARNAIGEAFACLGLQVDAEA
notes: single antibody chain, co-expressed; also called B-L1 of B/U-1 and B/U-2
B6: no binding [9]; no binding [10].

B7: P-O-T (bispecific antibody, human IgG1, kappa)
heavy: not shown
light 1: DIVLTQSPASLAVSPGQRATITCRASESVSIHGTHLMHWYQQKPGQPPKLLIYAASKLESGVPARFSGSGSGTDFTLTINPVEAEDTANYYCQQSFEDPLTFGQGTKLEIKGGGGSGIPPKIECLPIDISIDEGKVLTVASAFTGEPTPEVTWSTGGRKIHSQEQGRFHIENTDDLTTLIIKDVQKQDGGLYTLTLRNEFGSDSATVNIHIRSI
light 2: DIQMTQSPSSLSASVGDRVTITCRASENIYSYLAWYQQKPGKSPKLLIYNARTLAEGVPSRFSGSGSGTDFTLTISSLQPEDFATYYCQYHSGSPLPFGGGTKVEIKRTVAAPSVFIFPPSDEQLKSGTASVVCLLNNFYPREAKVQWKVDNALQSGNSQESVTEQDSKDSTYSLSSTLTLSKADYEKHKVYACEVTHQGLSSPVTKSFNRGEC
notes: also called anti-PDL1-TIGIT bispecific antibody in a (FabV)2-IgG form; PDL1-TIGIT bispecific antibody
With B7 the Kd (human PDL1-his [11]) was 0.0257 nM, the koff (human PDL1-his [11]) was 9.53e-05 s⁻¹ and the kon (human PDL1-his [11]) was 3.71e+06 M⁻¹ s⁻¹. For the same binder, the Kd (human TIGIT-his [12]) was 0.097 nM, the koff (human TIGIT-his [12]) was 0.000123 s⁻¹ and the kon (human TIGIT-his [12]) was 1.27e+06 M⁻¹ s⁻¹. The Kd (human TIGIT-his [13]) was 0.0954 nM, the koff (human TIGIT-his [13]) was 0.00012 s⁻¹ and the kon (human TIGIT-his [13]) was 1.26e+06 M⁻¹ s⁻¹. It also gave a Kd (human PDL1-his [14]) of 0.0303 nM, a koff (human PDL1-his [14]) of 8.12e-05 s⁻¹ and a kon (human PDL1-his [14]) of 2.68e+06 M⁻¹ s⁻¹.

B8: HJ-2-H1 (other)
heavy: EVQLVESGGGLVQPGGSLRLSCAASGFTFSHYYMAWVRQAPGKGLEWVTSISYEGDITYYGDSVKGRFTISRDNSKNTLYLQMNSLRAEDTATYYCASQTLRESFDYWGQGTLVTVSSASTKGPSVFPLAPSSKSTSGGTAALGCLVKDYFPEPVTVSWNSGALTSGVHTFPAVLQSSGLYSLSSVVTVPSSSLGTQTYICNVNHKPSNTKVDKKVEPKSCDKTHTCPPCPAPEAAGGPSVFLFPPKPKDTLMISRTPEVTCVVVDVSHEDPEVKFNWYVDGVEVHNAKTKPREEQYNSTYRVVSVLTVLHQDWLNGKEYKCKVSNKALPAPIEKTISKAKGQPREPQVCTLPPSREEMTKNQVSLSCAVKGFYPSDIAVEWESNGQPENNYKTTPPVLDSDGSFFLVSKLTVDKSRWQQGNVFSCSVMHEALHNHYTQKSLSLSPGKDYKDDDDK
notes: also called chain 2 of HJ-2
B8: no binding (HJ-2-L2).

B9: HJ-4-H1 (other)
heavy: B8 heavy
notes: also called chain 2 of HJ-4
B9: no binding (HJ-4-L2).
